Assay results published in PMC6405639 (2019).

Target: Y2R_cysteine_deficient_eYFP (in HEK293 cells) (human, UniProt P49146 1-381, C58^1.40A | C103^2.57S | C151^3.53S | C272^6.39A | C316^7.44A | C342^7.70A)
Sequence (P49146 other isoform, or with tags, fused parts or gaps with the stated changes): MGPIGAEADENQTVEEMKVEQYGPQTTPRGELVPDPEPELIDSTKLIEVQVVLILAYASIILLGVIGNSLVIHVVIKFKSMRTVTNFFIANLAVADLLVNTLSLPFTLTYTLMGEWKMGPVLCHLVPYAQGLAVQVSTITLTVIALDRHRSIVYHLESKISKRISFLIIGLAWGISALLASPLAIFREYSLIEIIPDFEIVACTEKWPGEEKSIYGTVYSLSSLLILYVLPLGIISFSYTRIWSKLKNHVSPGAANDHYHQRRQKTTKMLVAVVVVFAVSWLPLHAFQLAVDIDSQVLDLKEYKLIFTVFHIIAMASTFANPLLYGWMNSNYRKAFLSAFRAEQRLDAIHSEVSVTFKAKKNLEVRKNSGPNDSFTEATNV

B1: Porcine neuropeptide Y (peptide)
peptide: not shown
modifications: C-terminal amide
IC50: 8.2 nM
